Drawing on PMC5995969, “Structural basis for the regulation of human 5,10-methylenetetrahydrofolate reductase by phosphorylation and S-adenosylmethionine inhibition” (Nature Communications, 2018), this text covers Km for one substance.

The Km is the concentration of substrate that gives half-maximal velocity.

In data set [1] the test system is Nc1nc2c(c(=O)[nH]1)N1CN(c3ccc(C(=O)N[C@@H](CCC(=O)O)C(=O)O)cc3)CC1CN2. The data set is described as follows: purified protein. The note with it: FAD catalytic domain; binding site shared with NAD(P)H, next to FAD; 46.0 °C.
The test system of data set [2] is NC(=O)C1=CN([C@@H]2O[C@H](COP(=O)(O)OP(=O)(O)OC[C@H]3O[C@@H](n4cnc5c(N)ncnc54)[C@H](OP(=O)(O)O)[C@@H]3O)[C@@H](O)[C@H]2O)C=CC1. The data set is described as follows: purified protein. The following applies: FAD catalytic domain; binding site shared with CH2-THF, next to FAD; 46.0 °C.

For “5,10-methylenetetrahydrofolate reductase (MTHFR) (Homo sapiens)”, the figures for the Michaelis constant (Km) in data set [1] and in data set [2] were 22.4 µM and 23.5 µM, respectively.
